Assay results: patent US20240124881

Biological target: T1, DHX36 (Mus musculus) (UniProt Q8VHK9)
T1 sequence: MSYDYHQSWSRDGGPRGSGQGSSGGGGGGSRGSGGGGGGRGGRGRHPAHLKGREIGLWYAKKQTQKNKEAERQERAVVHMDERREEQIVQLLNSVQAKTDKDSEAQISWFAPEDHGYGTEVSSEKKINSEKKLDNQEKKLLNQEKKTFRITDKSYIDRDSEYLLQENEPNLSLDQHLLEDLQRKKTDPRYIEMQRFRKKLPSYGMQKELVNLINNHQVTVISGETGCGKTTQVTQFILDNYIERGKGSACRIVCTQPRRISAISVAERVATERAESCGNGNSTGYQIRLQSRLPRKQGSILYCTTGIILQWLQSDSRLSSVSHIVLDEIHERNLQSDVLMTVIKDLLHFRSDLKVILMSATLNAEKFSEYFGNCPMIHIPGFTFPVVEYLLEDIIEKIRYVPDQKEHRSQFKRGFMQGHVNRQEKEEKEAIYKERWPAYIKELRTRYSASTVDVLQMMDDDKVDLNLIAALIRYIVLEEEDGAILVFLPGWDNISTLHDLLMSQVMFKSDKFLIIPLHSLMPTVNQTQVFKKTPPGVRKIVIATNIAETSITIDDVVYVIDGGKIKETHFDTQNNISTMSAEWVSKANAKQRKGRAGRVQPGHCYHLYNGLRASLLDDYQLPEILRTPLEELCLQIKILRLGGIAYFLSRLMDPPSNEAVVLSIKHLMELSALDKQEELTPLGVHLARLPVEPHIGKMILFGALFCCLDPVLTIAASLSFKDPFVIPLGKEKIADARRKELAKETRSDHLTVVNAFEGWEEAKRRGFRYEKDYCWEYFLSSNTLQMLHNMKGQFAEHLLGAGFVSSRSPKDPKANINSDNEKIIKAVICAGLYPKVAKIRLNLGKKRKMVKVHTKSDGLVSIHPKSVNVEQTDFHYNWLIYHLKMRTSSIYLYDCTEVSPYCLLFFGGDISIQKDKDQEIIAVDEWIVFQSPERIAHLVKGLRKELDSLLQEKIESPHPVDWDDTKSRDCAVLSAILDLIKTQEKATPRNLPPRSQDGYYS
Experiment: pulldown
Conditions: N2a lysate, mass spectrometry; threshold criterion

Chaserr Exon5-MC
binding signal (fold lower recovery than WT): > 2
